Broadly, the Kd is the free concentration of one partner at which half of the binding sites on the other are occupied at equilibrium, for simple one-to-one binding. Low readings indicate a tighter complex, high ones a looser complex. The koff is a measure of how fast the partners let go of each other. A high value points to a short-lived complex. What is called kon is the second-order rate constant of association. A high value points to faster complex formation.

Test [1] deals with human polyclonal IgG (Gammanorm) (human). In words: SPR; ratio to reference Zvar1 after 0.5M NaOH cycles.
For test [2] the target is unchanged. As to the kind of experiment: SPR, ligand on chip; IgG signal left after 0.5M NaOH cycles. In general terms: Surface plasmon resonance follows binding to a sensor surface in real time, without labels.
Test [3] shares this target. As to the kind of experiment: SPR; ratio to reference Zvar4 after 0.5M NaOH cycles.
Test [4] shares this target. As to the kind of experiment: SPR; ratio to reference Zvar4 after 1M NaOH cycles.
For test [5] the target is unchanged. In words: SPR, ligand on chip; IgG signal left after 1M NaOH cycles.
Test [6] has as its target IgG1 monoclonal antibody (probe molecule of Example 1). As to the kind of experiment: Biacore SPR, ligand on CM5 chip, IgG1 mAb as probe.
Test [7] concerns the target human polyclonal IgG (Gammanorm) (human). In words: SPR; ratio to reference Zvar6 after 0.5M NaOH cycles.

As for “Zvar(N11E, Q32E, K50R)1 (designed binder)”, in test [1], the Capacity relative to reference was 1.04. The substance further returned a Capacity after 96-100 cycles in test [2] of 53%.
Turning to “Zvar(N11K, H18K, D37E, A42R, N43A, L44I)1 (designed binder)”, the Capacity relative to reference in test [1] was found to be 1.31. Moreover, in test [2], the Capacity after 96-100 cycles came out at 59%.
On to “Zvar(N11K, H18K, S33K, D37E, A42R, N43A, L44I, K50R, L51Y)1 (designed binder)”, for which the Capacity relative to reference in test [1] is 1.46. In addition, the Capacity after 96-100 cycles in test [2] stood at 67%.
Substance “Zvar(Q9A, N11E, D37E, Q40V, A42K, N43A, L44I)4 (designed binder)” displayed a Remaining capacity 100 cycles (%) in test [2] of 81%. Also, in test [3], the Capacity relative to ref. 100 cycles was 1.13.
For “Zvar(Q9A, N11E, D37E, Q40V, A42R, N43A, L44I)4 (designed binder)”, in test [2], the Remaining capacity 100 cycles (%) was 84%. For the same substance, the Capacity relative to ref. 100 cycles in test [3] came out at 1.17.
For “Zvar(Q9A, N11E, N28A, N43A)4 (designed binder)”, the Capacity relative to ref. 100 cycles in test [4] is 2.04. In test [2], this substance registered a Remaining capacity 100 cycles (%) of 80%, a Remaining capacity 200 cycles (%) of 62% and a Remaining capacity 300 cycles (%) of 42%. The substance also came in with a Remaining capacity 100 cycles (%) in test [5] of 55%. In test [3], the Capacity relative to ref. 100 cycles came out at 1.19, the Capacity relative to ref. 200 cycles came out at 1.72 and the Capacity relative to ref. 300 cycles stood at 2.62.
Take “Zvar(Q9A, N11E, N28A, Q40V, A42K, N43A, L44I)1 (designed binder)”: in test [1], the Capacity relative to reference is 1.35. This substance gave a Capacity after 96-100 cycles in test [2] of 65%.
As for “Zvar(Q9A, N11E, N28A, Q40V, A42K, N43A, L44I)4 (designed binder)”, in test [2], the Remaining capacity 100 cycles (%) was 84%. The Capacity relative to ref. 100 cycles in test [3] turned out to be 1.24.
Regarding “Zvar(Q9A, N11E, N43A)4 (designed binder)”, in test [2], the Remaining capacity 100 cycles (%) turned out to be 81%, the Remaining capacity 200 cycles (%) came to 62% and the Remaining capacity 300 cycles (%) was found to be 41%. In addition, in test [3], the Capacity relative to ref. 100 cycles amounted to 1.21, the Capacity relative to ref. 200 cycles was 1.72 and the Capacity relative to ref. 300 cycles turned out to be 2.56.
Take “Zvar(Q9A, N11E, Q40V, A42K, N43A, L44I)1 (designed binder)”: the Capacity relative to reference in test [1] worked out at 1.4. In addition, the Capacity after 96-100 cycles in test [2] is 66%. Besides, in test [6], the Kd was determined as 1.07 nM, the koff worked out at 0.000437 s⁻¹ and the kon worked out at 410000 M⁻¹ s⁻¹.
Turning to “Zvar(Q9A, N11E, Q40V, A42K, N43A, L44I)4 (designed binder)”, the Capacity relative to ref. 100 cycles in test [4] amounted to 2.07. Moreover, in test [2], the Remaining capacity 100 cycles (%) stood at 90%, the Remaining capacity 200 cycles (%) is 74% and the Remaining capacity 300 cycles (%) turned out to be 57%. Besides, in test [5], the Remaining capacity 100 cycles (%) is 56%. Moreover, in test [3], the Capacity relative to ref. 100 cycles was 1.34, the Capacity relative to ref. 200 cycles was 2.06 and the Capacity relative to ref. 300 cycles is 3.56.
Consider “Zvar(Q9A, N11E, Q40V, A42K, N43A, L44I)6 (designed binder)”, for which the Capacity relative to ref. 100 cycles in test [7] was determined as 1.3. In test [2], this substance returned a Remaining capacity 100 cycles (%) of 87%.
As to “Zvar(Q9A, N11E, Q40V, A42K, N43E, L44I)4 (designed binder)”, the Capacity relative to ref. 100 cycles in test [4] was found to be 2. Besides, in test [2], the Remaining capacity 100 cycles (%) turned out to be 84%, the Remaining capacity 200 cycles (%) came to 65% and the Remaining capacity 300 cycles (%) stood at 48%. The substance further gave a Remaining capacity 100 cycles (%) in test [5] of 54%. Also, in test [3], the Capacity relative to ref. 100 cycles is 1.25, the Capacity relative to ref. 200 cycles was determined as 1.81 and the Capacity relative to ref. 300 cycles came to 3.
Turning to “Zvar(Q9A, N11K, H18K, D37E, A42R, N43A, L44I)1 (designed binder)”, the Capacity relative to reference in test [1] is 1.4. The substance also came in with a Capacity after 96-100 cycles in test [2] of 63%.
In the same order, the values of “Zvar(Q9A, N11K, H18K, D37E, A42R, N43A, L44I, K50R)1 (designed binder)” are 1.49 and 67%.
As for “Zvar(Q9A, N11K, H18K, S33K, D37E, A42R, N43A, L44I, K50R, L51Y)1 (designed binder)”, the Capacity relative to reference in test [1] came to 1.28. Further, the Capacity after 96-100 cycles in test [2] came to 59%.
The substance “parental B domain of Protein A (from UniProt A0A0H3K686 212-269)” came in with a Reference capacity after 96-100 cycles in test [2] of 35%.
“parental C domain of Protein A (from UniProt A0A0H3K686 270-327)” came in with a Reference capacity after 96-100 cycles in test [2] of 49%.

(Values after patent US20200239517A1.)
